Experimental findings from patent publication US20050037969A1 (ARBOR VITA, published 2005) are described below.

Ends that are not written are not given here. * marks the point of attachment. Biotin = O=C1N[C@H]2[C@H](CS[C@H]2CCCCC(=O)*)N1

T1: GST-DVL1 PDZ domain fusion protein (human, UniProt O14640 247-339)
T1 construct: also called human dishevelled segment polarity protein homolog; not shown: glutathione S-transferase encoded by vector pGEX-3X (Pharmacia)
T1 sequence: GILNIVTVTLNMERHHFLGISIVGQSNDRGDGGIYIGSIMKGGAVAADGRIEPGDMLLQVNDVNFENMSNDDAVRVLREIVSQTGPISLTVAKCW

T2: GST-TAX-IP43 PDZ domain fusion protein (human, UniProt Q13884 109-180)
T2 construct: also called TAX43; not shown: glutathione S-transferase encoded by vector pGEX-3X (Pharmacia)
T2 sequence: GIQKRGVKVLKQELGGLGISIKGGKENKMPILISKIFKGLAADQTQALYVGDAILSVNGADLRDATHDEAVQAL

T3: GST-prIL16 fusion protein (PDZ domains 1-2) (Homo sapiens (Human), UniProt Q14005 1111-1324)
T3 construct: also called putative interleukin 16 precursor; not shown: glutathione S-transferase encoded by vector pGEX-3X (Pharmacia)
T3 sequence: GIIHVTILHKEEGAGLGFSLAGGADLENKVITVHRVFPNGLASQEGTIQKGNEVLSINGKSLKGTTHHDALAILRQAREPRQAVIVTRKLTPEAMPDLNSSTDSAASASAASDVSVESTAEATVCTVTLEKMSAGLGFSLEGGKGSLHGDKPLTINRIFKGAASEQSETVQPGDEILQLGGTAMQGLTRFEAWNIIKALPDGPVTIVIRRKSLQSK

T4: GST-DLG5 (p-dlg) PDZ domain fusion protein (Human, UniProt Q8TDM6 1343-1583)
T4 construct: also called Human discs large protein p-dlg; not shown: glutathione S-transferase encoded by vector pGEX-3X (Pharmacia)
T4 sequence: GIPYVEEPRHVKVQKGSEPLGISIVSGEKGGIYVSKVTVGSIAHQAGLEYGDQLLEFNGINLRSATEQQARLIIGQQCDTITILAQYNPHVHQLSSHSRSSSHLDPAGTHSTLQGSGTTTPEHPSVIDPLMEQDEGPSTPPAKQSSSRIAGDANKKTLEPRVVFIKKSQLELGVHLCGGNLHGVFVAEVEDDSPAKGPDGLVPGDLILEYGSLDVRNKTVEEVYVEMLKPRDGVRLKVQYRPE

T5: GEF PDZ-GST fusion protein (Homo sapiens (Human), UniProt Q8TEU7 293-400)
T5 construct: The label GEF is not explained in the excerpts
T5 sequence: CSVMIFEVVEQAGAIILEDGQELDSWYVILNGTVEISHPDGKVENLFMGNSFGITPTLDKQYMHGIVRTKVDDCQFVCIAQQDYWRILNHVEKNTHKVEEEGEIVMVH

T6: SP short PDZ-GST fusion protein (Homo sapiens (Human), UniProt O43464 350-435)
T6 construct: The label SP short is not explained in the excerpts
T6 sequence: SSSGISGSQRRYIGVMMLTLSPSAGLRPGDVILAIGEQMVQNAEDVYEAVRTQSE

T7: GST-TAX-IP2 PDZ domain fusion protein (human, UniProt O14908 129-216)
T7 construct: also called TAX-1P2; TAX2; not shown: glutathione S-transferase encoded by vector pGEX-3X (Pharmacia)
T7 chain: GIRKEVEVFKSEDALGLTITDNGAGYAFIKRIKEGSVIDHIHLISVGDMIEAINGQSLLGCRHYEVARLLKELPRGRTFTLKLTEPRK

T8: K858 PDZ-GST fusion protein (Homo sapiens (Human), UniProt Q8WWI1 1038-1131)
T8 construct: Order of GST and PDZ part and limits not seen in the excerpts
T8 sequence: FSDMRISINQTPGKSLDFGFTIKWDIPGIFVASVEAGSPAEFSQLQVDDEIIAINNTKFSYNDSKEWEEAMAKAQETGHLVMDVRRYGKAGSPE

T9: GST-KIAA0303 PDZ domain fusion protein (Homo sapiens (Human), UniProt O15021 1138-1228)
T9 construct: also called K303; not shown: glutathione S-transferase encoded by vector pGEX-3X (Pharmacia)
T9 sequence: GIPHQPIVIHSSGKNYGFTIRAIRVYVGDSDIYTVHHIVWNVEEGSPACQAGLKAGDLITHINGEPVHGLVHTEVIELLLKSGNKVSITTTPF

T10: TAX-IP2L PDZ-GST fusion protein (Homo sapiens (Human), UniProt Q8TF64 107-197)
T10 construct: Order of GST and PDZ part and limits not seen in the excerpts
T10 sequence: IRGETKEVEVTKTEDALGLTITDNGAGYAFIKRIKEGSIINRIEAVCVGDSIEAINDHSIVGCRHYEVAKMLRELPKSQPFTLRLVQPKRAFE

T11: ConEn PDZ-GST fusion protein (Homo sapiens (Human), UniProt Q969H4 193-287)
T11 construct: The label ConEn is not explained in the excerpts
T11 sequence: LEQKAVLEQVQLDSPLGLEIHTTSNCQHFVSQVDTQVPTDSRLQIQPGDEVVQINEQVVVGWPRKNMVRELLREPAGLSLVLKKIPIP

T12: GST-AF6 PDZ domain fusion protein (Homo sapiens (Human), UniProt P55196 1001-1093)
T12 construct: also called af-6 protein; not shown: glutathione S-transferase encoded by vector pGEX-3X (Pharmacia)
T12 sequence: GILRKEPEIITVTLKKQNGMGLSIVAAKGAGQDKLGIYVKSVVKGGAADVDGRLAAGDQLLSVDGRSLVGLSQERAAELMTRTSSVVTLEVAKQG

T13: TAX-IP33 PDZ-GST fusion protein (Homo sapiens (Human), UniProt O14910 103-193)
T13 construct: Order of GST and PDZ part and limits not seen in the excerpts
T13 sequence: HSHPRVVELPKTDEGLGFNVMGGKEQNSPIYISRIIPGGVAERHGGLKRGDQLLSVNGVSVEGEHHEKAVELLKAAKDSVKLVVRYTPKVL

B1: CDW128B (IL8RB) C-terminal peptide AA29.2L, biotinylated (peptide)
peptide: Biotin-KDSRPSFVGSSSGHTSTTL
notes: also called CDW128E (IL8RB)

The target of the first test is T14, PICK1 PDZ-GST fusion protein (Bos taurus (Bovine), UniProt Q2T9M1 17-105).
T14 construct: Order of GST and PDZ part and limits not seen in the excerpts
T14 sequence (Q2T9M1 other isoform, or with tags, fused parts or gaps limits assumed): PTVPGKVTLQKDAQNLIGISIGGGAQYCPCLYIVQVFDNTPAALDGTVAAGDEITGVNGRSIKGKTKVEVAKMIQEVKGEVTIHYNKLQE
Description: A/G assays.
For B1, the binding result is on record as “no binding”.

The next test deals with T1, GST-DVL1 PDZ domain fusion protein. Kind of test: A/G assays.
In the case of B1, the binding result was “no binding”.

Another test addresses T2, GST-TAX-IP43 PDZ domain fusion protein. Kind of test: A/G assays.
As for B1, the binding result is on record as “no binding”.

In another test the target is T3, GST-prIL16 fusion protein (PDZ domains …). Kind of test: A/G assays.
As for B1, the binding result is “no binding”.

The next test addresses T4, GST-DLG5 (p-dlg) PDZ domain fusion …. Description: A/G assays.
As for B1, the binding result is reported as “no binding”.

The target of another test is T5, GEF PDZ-GST fusion protein. Kind of test: A/G assays.
Take B1: the binding result was “no binding”.

A further test addresses T6, SP short PDZ-GST fusion protein. Description: A/G assays.
With B1, the binding result is on record as “no binding”.

In another test the target is T7, GST-TAX-IP2 PDZ domain fusion protein. Description: A/G assays.
In the case of B1, the binding result is “no binding”.

In another test the target is T8, K858 PDZ-GST fusion protein. Description: A/G assays.
As for B1, the binding result is on record as “no binding”.

For a further test, the target named is T15, GST-TIAM1 PDZ domain fusion protein (Homo sapiens (Human), UniProt Q13009 845-931).
T15 construct: also called TLAM1; T-lymphoma invasion and metastasis inducing protein 1; not shown: glutathione S-transferase encoded by vector pGEX-3X (Pharmacia)
T15 sequence (Q13009 other isoform, or with tags, fused parts or gaps): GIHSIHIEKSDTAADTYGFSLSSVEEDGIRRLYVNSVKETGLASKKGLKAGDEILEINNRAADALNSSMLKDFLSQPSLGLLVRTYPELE
Kind of test: A/G assays.
On to B1, for which the binding result was “no binding”.

Another test has as its target T9, GST-KIAA0303 PDZ domain fusion protein. Description: A/G assays.
For B1, the binding result is reported as “no binding”.

The target in a further test is T16, K316 PDZ-GST fusion protein (Homo sapiens (Human), UniProt Q14CM0 72-159).
T16 construct: Order of GST and PDZ part and limits not seen in the excerpts
T16 sequence (Q14CM0 72-159 limits assumed): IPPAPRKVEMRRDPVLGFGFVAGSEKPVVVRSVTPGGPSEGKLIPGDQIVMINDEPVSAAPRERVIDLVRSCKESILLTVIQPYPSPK
Description: A/G assays.
Turning to B1, the binding result is “no binding”.

The next test has as its target T10, TAX-IP2L PDZ-GST fusion protein. Description: A/G assays.
On to B1, for which the binding result was “no binding”.

The target in the next test is T11, ConEn PDZ-GST fusion protein. Description: A/G assays.
On to B1, for which the binding result was “no binding”.

A further test concerns the target T12, GST-AF6 PDZ domain fusion protein. Kind of test: A/G assays.
In the case of B1, the binding result is on record as “no binding”.

The target in another test is T13, TAX-IP33 PDZ-GST fusion protein. Description: A/G assays.
Regarding B1, the binding result is listed as “no binding”.
